# Assay results taken from publication PMC2120827.
# Target: GST-Sox17 (mouse, UniProt Q61473 24-366)
# Assay: EMSA
# GST-Sox17, sequence (Q61473 24-366): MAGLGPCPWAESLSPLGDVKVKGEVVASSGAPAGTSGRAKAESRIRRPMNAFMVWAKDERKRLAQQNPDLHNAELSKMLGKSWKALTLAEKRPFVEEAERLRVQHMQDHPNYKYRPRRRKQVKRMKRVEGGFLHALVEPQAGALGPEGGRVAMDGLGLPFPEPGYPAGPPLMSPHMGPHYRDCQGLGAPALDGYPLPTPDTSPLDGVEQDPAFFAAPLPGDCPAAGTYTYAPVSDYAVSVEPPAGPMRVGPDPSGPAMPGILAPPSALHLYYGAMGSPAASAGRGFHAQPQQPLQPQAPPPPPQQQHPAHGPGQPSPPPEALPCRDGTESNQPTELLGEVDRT
binder,measurement,value
GCAGAACAATGGCGTTAGCTCGCCATTGTTCTG (structured_DNA) [SCS6],binding result,binds
